The target in this test is alkyl hydroperoxide reductase subunit C (peroxiredoxin) from Amphibacillus xylanus (Amphibacillus xylanus) (UniProt K0J4Q8). In words: SPR.

Regarding “NADH oxidase from Amphibacillus xylanus (enzyme)”, the kon amounted to 29 M⁻¹ s⁻¹.

The values above are taken from article PMC4338369.
